Measurements as given in patent US20140295512A1, “Ketol-Acid Reductoisomerases With Improved Performance Properties” (CALIFORNIA INSTITUTE OF TECHNOLOGY, priority 2011, published 2014).
Changes are numbered by the printed parent chain. In names and notes the source's numbering stands.

B1: Se1_NKR^S61DS63D: S. exigua KARI double aspartic acid variant S61D, S63D (protein, UniProt D0WGK0 1-342, looked up, variant S61D S63D)
Ketol-acid reductoisomerase …: MSVKTKEKEMAVTILYEQDVDPKVIQGLKVGIIGYGSQGHAHALNLMDSGVDVRVGLREGDSDWKTAEEAGLKVTDMDTAAEEADVIMVLVPDEIQPKVYQEHIAAHLKAGNTLAFAHGFNIHYGYIVPPEDVNVIMCAPKGPGHIVRRQFTEGSGVPDLACVQQDATGNAWDIVLSYCWGVGGARSGIIKATFAEETEEDLFGEQAVLCGGLVELVKAGFETLTEAGYPPELAYFECYHEMKMIVDLMYESGIHFMNYSISNTAEYGEYYAGPKVINEQSREAMKEILKRIQDGSFAQEFVDDCNNGHKRLLEQREAINTHPIETTGAQIRSMFSWIKKED
modifications: His6 tag
notes: S. exigua KARI double aspartic acid variant S61D, S63D
B2: Se1_NKR^2E8-his6: S. exigua KARI variant R58P, S61C, S62P, S63D, I95T (protein, UniProt D0WGK0 1-342, looked up, variant R58P S61C S62P S63D I95T)
Ketol-acid reductoisomerase …: B1 Ketol-acid reductoisomerase … with R58P, D61C, S62P, I95T
modifications: His6 tag
notes: S. exigua KARI variant R58P, S61C, S62P, S63D, I95T
B3: Se1_KARI^HF2-his6: S. exigua KARI variant S61C (protein, UniProt D0WGK0 1-342, looked up, variant S61C)
Ketol-acid reductoisomerase …: B1 Ketol-acid reductoisomerase … with D61C, D63S
modifications: His6 tag
notes: S. exigua KARI variant S61C
B4: Se1_KARI^GE11-his6: S. exigua KARI variant G60V (protein, UniProt D0WGK0 1-342, looked up, variant G60V)
Ketol-acid reductoisomerase …: B1 Ketol-acid reductoisomerase … with G60V, D61S, D63S
modifications: His6 tag
notes: S. exigua KARI variant G60V
B5: Se1_NKR^10C2-his6: S. exigua KARI variant R58P, S61C, S62A, S63D, I95T (protein, UniProt D0WGK0 1-342, looked up, variant R58P S61C S62A S63D I95T)
Ketol-acid reductoisomerase …: B1 Ketol-acid reductoisomerase … with R58P, D61C, S62A, I95T
modifications: His6 tag
notes: S. exigua KARI variant R58P, S61C, S62A, S63D, I95T
B6: Se1_KARI^JB7-his6: S. exigua KARI variant S63Q (protein, UniProt D0WGK0 1-342, looked up, variant S63Q)
Ketol-acid reductoisomerase …: B1 Ketol-acid reductoisomerase … with D61S, D63Q
modifications: His6 tag
notes: S. exigua KARI variant S63Q
B7: Se1_KARI^LE1-his6: S. exigua KARI variant I95V (protein, UniProt D0WGK0 1-342, looked up, variant I95V)
Ketol-acid reductoisomerase …: B1 Ketol-acid reductoisomerase … with D61S, D63S, I95V
modifications: His6 tag
notes: S. exigua KARI variant I95V
B8: Se1_KARI^EE1-his6: S. exigua KARI variant L57R (protein, UniProt D0WGK0 1-342, looked up, variant L57R)
Ketol-acid reductoisomerase …: B1 Ketol-acid reductoisomerase … with L57R, D61S, D63S
modifications: His6 tag
notes: S. exigua KARI variant L57R
B9: Se1_KARI^LE9-his6: S. exigua KARI variant I95T (protein, UniProt D0WGK0 1-342, looked up, variant I95T)
Ketol-acid reductoisomerase …: B1 Ketol-acid reductoisomerase … with D61S, D63S, I95T
modifications: His6 tag
notes: S. exigua KARI variant I95T
B10: Se1_KARI^EA8-his6: S. exigua KARI variant L57S (protein, UniProt D0WGK0 1-342, looked up, variant L57S)
Ketol-acid reductoisomerase …: B1 Ketol-acid reductoisomerase … with L57S, D61S, D63S
modifications: His6 tag
notes: S. exigua KARI variant L57S
B11: Se1_KARI^MH9-his6: S. exigua KARI variant V99L (protein, UniProt D0WGK0 1-342, looked up, variant V99L)
Ketol-acid reductoisomerase …: B1 Ketol-acid reductoisomerase … with D61S, D63S, V99L
modifications: His6 tag
notes: S. exigua KARI variant V99L
B12: Se1_KARI^CD10-his6: S. exigua KARI variant Y35H (protein, UniProt D0WGK0 1-342, looked up, variant Y35H)
Ketol-acid reductoisomerase …: B1 Ketol-acid reductoisomerase … with Y35H, D61S, D63S
modifications: His6 tag
notes: S. exigua KARI variant Y35H

assay: KARI assay of purified S. exigua KARI and variants with NADPH (Examples 6-9); format: biochemical; conditions: not given
Protocol: (§1) S. exigua KARI activity or activities of its variants were assayed kinetically by monitoring the decrease in NADPH or NADH concentration by measuring the change in absorbance at 340 nm. An assay buffer was prepared containing 100 mM potassium phosphate pH 7.0, 1 mM DTT, 2.5 mM (S)-2-acetolactate, and 10 mM MgCl2 (final concentrations in the 1-mL assay, accounting for dilution with enzyme and cofactor). Fifty μL purified enzyme and 930 μL of the assay buffer were placed into a 1-mL cuvette. The reaction was initiated by addition of 20 μL NADPH or NADH (200 μM final concentration) for a general activity assay. Michaelis-Menten constants of the cofactors were determined with varying concentrations of NADPH (200-12 μM final) or NADH (200-6 μM final).

With B1 the “NADPH KM value, fold increased versus wild-type/parent” value was “more than 800 fold”.

In order of rising “kcat NADPH” value:
1. B5  0.08 s⁻¹
2. B1  0.1 ± 0.01 s⁻¹
3. B2  0.1 s⁻¹
4. B3  0.57 s⁻¹
5. B7  1.00 s⁻¹
6. B6  1.5 s⁻¹
7. B4  2 s⁻¹

For B2, the “NADPH-dependent activity (in words)” value was “virtually abolished”.
For B5, the “NADPH-dependent activity (in words)” value was “virtually abolished”.

same assay, conditions: cofactor NADPH

In order of falling “U/mg NADPH (specific activity)” value:
1. B4  0.8 U/mg
2. B6  0.6 U/mg
3. B9  0.56 U/mg
4. B7  0.4 U/mg
5. B11  0.34 U/mg
6. B10  0.25 U/mg
7. B3  0.23 U/mg
8. B12  0.19 U/mg
9. B2  0.044 U/mg
10. B1  0.042 ± 0.005 U/mg
11. B8  0.04 U/mg
12. B5  0.032 U/mg

same assay, conditions: cofactor NADPH; listed as Se1_KARI^LE1

With B7 the “U/mg NADPH (specific activity)” value was 0.40 U/mg.

same assay, conditions: cofactor NADPH; listed as Se1_NKR^DD-his6

For B1, the “U/mg NADPH (specific activity)” value was 0.04 ± 0.005 U/mg.

same assay, conditions: listed as S61D/S63D

For B1, the “kcat NADPH” value was 0.1 s⁻¹.

same assay, conditions: listed as Se1_NKR^DD-his6

With B1 the “kcat NADPH” value was 0.1 s⁻¹.

same assay, conditions: read-out: Km for cofactor NADPH

Going from B1 to B2, the Km rises from 880 ± 500 µM to greater than 1000 µM.

Molecule B5 has a Km greater than 1000 µM.

assay: KARI assay of purified S. exigua KARI and variants with NADH (Examples 6-9); format: biochemical; conditions: not given
Protocol: as §1

In order of rising “NADH KM value, fold increased versus wild-type” value:
1. B2  2 fold
2. B1  2.5 fold

In order of rising “kcat NADH” value:
1. B5  0.27 s⁻¹
2. B2  0.4 s⁻¹
3. B3  0.45 s⁻¹
4. B6  0.69 s⁻¹
5. B7  0.74 s⁻¹
6. B1  1 ± 0.13 s⁻¹
7. B4  1 s⁻¹

In the case of B1, the “kcat in presence of NADH, fold higher than in presence of NADPH” value is reported as 10 fold.

In order of falling “kcat/Km ratio NADH/NADPH (cofactor specificity)” value:
1. B1  78
2. B2  46
3. B5  14

same assay, conditions: cofactor NADH

In order of falling “U/mg NADH (specific activity)” value:
1. B1  0.4 ± 0.05 U/mg
2. B4  0.4 U/mg
3. B9  0.32 U/mg
4. B7  0.3 U/mg
5. B6  0.28 U/mg
6. B11  0.21 U/mg
7. B10  0.19 U/mg
8. B3  0.18 U/mg
9. B2  0.16 U/mg
10. B12  0.13 U/mg
11. B5  0.11 U/mg
12. B8  0.06 U/mg

same assay, conditions: cofactor NADH; listed as Se1_KARI^GE11

In the case of B4, the “U/mg NADH (specific activity)” value is reported as 0.40 U/mg.

same assay, conditions: cofactor NADH; listed as Se1_KARI^LE1

In the case of B7, the “U/mg NADH (specific activity)” value is reported as 0.30 U/mg.

same assay, conditions: listed as S61D/S63D

With B1 the “kcat NADH” value was 1 s⁻¹.

same assay, conditions: listed as Se1_NKR^DD-his6

For B1, the “kcat NADH” value was 1 s⁻¹.

For B1, the “kcat/Km ratio NADH/NADPH (cofactor specificity)” value was 76.

same assay, conditions: read-out: Km for cofactor NADH

In order of rising Km:
1. B7  19 µM
2. B3  43.8 µM
3. B2  87 µM
4. B1  113 ± 4 µM
5. B5  250 µM

same assay, conditions: specific activity ratio

In order of rising “Ratio NADH/NADPH (U/mg)” value:
1. B6  0.47
2. B4  0.48
3. B9  0.58
4. B11  0.64
5. B12  0.68
6. B10  0.76
7. B3  0.78
8. B7  0.8
9. B8  1.58
10. B5  3.4
11. B2  3.6
12. B1  9.5

same assay, conditions: specific activity ratio; listed as Se1_KARI^GE11

With B4 the “Ratio NADH/NADPH (U/mg)” value was 0.50.
